Earlier results in publication PMC5938170.

How the values were obtained:
EGFR (Homo sapiens) = EGFR (Homo sapiens) (UniProt P00533)
Met (Homo sapiens) = Met (Homo sapiens) (UniProt P08581)
Sequence of UniProt P08581 (P08581 25-932): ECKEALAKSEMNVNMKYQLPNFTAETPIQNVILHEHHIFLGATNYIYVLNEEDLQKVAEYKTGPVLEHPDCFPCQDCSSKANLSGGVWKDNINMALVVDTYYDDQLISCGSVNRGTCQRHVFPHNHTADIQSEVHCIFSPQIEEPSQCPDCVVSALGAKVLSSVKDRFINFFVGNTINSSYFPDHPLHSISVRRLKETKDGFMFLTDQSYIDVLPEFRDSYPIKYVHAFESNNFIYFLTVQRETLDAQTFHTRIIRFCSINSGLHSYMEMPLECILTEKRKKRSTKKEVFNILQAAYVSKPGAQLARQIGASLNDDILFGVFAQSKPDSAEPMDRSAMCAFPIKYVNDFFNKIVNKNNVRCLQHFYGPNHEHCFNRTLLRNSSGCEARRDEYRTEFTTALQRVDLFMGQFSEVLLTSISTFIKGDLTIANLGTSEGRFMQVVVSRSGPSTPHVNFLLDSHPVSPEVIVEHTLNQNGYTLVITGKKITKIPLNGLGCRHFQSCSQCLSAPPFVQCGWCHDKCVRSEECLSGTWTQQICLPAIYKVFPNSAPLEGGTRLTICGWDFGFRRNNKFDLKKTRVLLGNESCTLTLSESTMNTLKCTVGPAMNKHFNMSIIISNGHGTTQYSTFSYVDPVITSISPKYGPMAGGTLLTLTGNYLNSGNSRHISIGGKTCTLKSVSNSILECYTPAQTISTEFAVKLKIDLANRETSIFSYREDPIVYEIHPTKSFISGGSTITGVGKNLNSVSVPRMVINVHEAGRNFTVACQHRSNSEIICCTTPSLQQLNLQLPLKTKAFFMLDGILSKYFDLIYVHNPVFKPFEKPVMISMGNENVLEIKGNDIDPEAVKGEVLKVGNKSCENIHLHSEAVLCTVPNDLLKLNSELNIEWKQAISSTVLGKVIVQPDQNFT

Kd (EGFR (Homo sapiens)): 75 nM
Kd (Met (Homo sapiens)): 2 nM
Substance: Decorin (from UniProt P07585)
